Results on 54 variants are retold here after the RNAGym collection of RNA variant scans (doi:10.7554/elife.80360).

The labels stand for the following.
B1: Twister Ribozyme (parent)
chain: AACACUGCCAAUGCCGGUCCCAAGCCCGGAUAAAAGUGGAGGGGGCGG

The variants in this data set derive from B1. Put plainly: self-cleavage, relative activity (ratio to wild type); higher = more cleavage; co-transcriptional.
On to AACACUGCCAAUGCCGGUCCCAAGCCCGGAUAAAAGUUCAGGGGGCGG, for which the self-cleavage came to 0.14.
The result for AACACUGCCAAUGCCGGUCCCAAGCCCGCAUUAAAGUGGAGGGGGCGG reads 0.443.
The result for AACACUGCCAAUGCCUGUCCCAAGCCCGGAUAAAAGUGGAUGGGGCGG reads 0.35; that for AACACUGCCAAUGCCGGUCCCAAGCGCGGAUAAAAGUGGAGGGGGCCG, 0.145.
As for AACACUGCCAAUGCCGGUCCGAAGCCCGGAUAAAAGUGGAGGGGGCGC, the self-cleavage worked out at 0.0934.
The result for AACACUGCCAAUGCCGGCCCCAUGCCCGGAUAAAAGUGGAGGGGGCGG reads 0.242.
Regarding AACGCUGCCAAUGCCGGUCCCAAGCCCGGAUACAAGUGGAGGGGGCGG, the self-cleavage came to 0.721.
The result for AACACUGCCAAUGCCGGUACCAAGCCAGGAUAAAAGUGGAGGGGGCGG reads 0.0712; that for AACACUGCCAAUGCCGGUCCCUAGCCCGGAUAAAAGGGGAGGGGGCGG, 0.554.
The result for AACACUGCCAAUGCCUGUCCCACGCCCGGAUAAAAGUGGAGGGGGCGG reads 0.115.
Take AACACUGGCAAUGCCGGUCCCAAGCCCGGAUAAAAUUGGAGGGGGCGG: the self-cleavage was 0.11.
As to AACACUGCCAAUGCAGGUCUCAAGCCCGGAUAAAAGUGGAGGGGGCGG, the self-cleavage came out at 0.397.
The result for AACUCUGCCAAUGCCGGUCCCAAGCCCGGAUAAAAGUAGAGGGGGCGG reads 0.0789; that for AACACUGCCCUUGCCGGUCCCAAGCCCGGAUAAAAGUGGAGGGGGCGG, 0.883; that for AACACUGCCAAUGCCGGUCCCUAGCCCGGAUAACAGUGGAGGGGGCGG, 0.0816.
As to AACACUGCCAAUGCCGGUCUCAAGCCCGGAUAAAAGUAGAGGGGGCGG, the self-cleavage stood at 0.802.
The result for AACACGGCCAAUGCCGGUCCCAAGCCCGGAUAAAAGUAGAGGGGGCGG reads 0.315; that for AACACUGCCAAUGCCGGUCCCAAGCCCGUAUAAAAGUGAAGGGGGCGG, 0.417.
The result for AACACUGCCAAUGCGGGUCCCAAGCCCGGAUAAAAGUGGAGGGGACGG reads 0.113; that for AACACUGCCAAUGCCGGUCCCAAGCCCUGAUAAAAGAGGAGGGGGCGG, 0.348; that for AACACUGCCAAUGCCGGUCCCAAGCCCGGAUAAUAGUGGAGUGGGCGG, 0.145.
The result for AACACUGCCAUUGCCGGUCCGAAGCCCGGAUAAAAGUGGAGGGGGCGG reads 0.0514; that for AACACCGCCAAUGCCGGUCCCAAGCCCGGAGAAAAGUGGAGGGGGCGG, 0.422.
For AACACUGCAAAUGCCGGUUCCAAGCCCGGAUAAAAGUGGAGGGGGCGG, the self-cleavage stood at 0.197.
On to AACACUGCCAAUGCCGGGCCCAAGCCCGGAUAAAAGUGGAGGGGGCGU, for which the self-cleavage is 0.117.
The result for AACACUGCCAAUGUCGGUCACAAGCCCGGAUAAAAGUGGAGGGGGCGG reads 0.154.
The result for AACACUGCCAAUGCCAGUCCCAAGCCAGGAUAAAAGUGGAGGGGGCGG reads 0.858; that for GACACUGCCAAUGCCGGUCCCAAGCCCGGAUAAAAGUGUAGGGGGCGG, 0.198; that for AACACUGCUAAUGCCGGUCCCAGGCCCGGAUAAAAGUGGAGGGGGCGG, 0.0717.
The result for ACCACUGCCAAUGCCUGUCCCAAGCCCGGAUAAAAGUGGAGGGGGCGG reads 0.0604; that for AACACUGCCAAUGCCGGUCCCCAGCCCGGAUAAAAGUGGAGUGGGCGG, 0.198.
Regarding AACACUGCCAUUGCCGGUCCCACGCCCGGAUAAAAGUGGAGGGGGCGG, the self-cleavage came to 0.241.
Regarding AACACUGCCAAUGACGGUCCCAAGCCCGGAUAAAAGUGGAGGGGCCGG, the self-cleavage came out at 0.58.
The result for AACACUGCCAAUGCCGGCCCCAAGCCCGGAUAAAAGUGGAGGAGGCGG reads 0.188; that for AACAAUGCCAAUGCCGGUCACAAGCCCGGAUAAAAGUGGAGGGGGCGG, 0.0707; that for AACACUGCCAAUGGCGGUCCCAAGCCGGGAUAAAAGUGGAGGGGGCGG, 0.0942.
For the variant AACGCUGCCAAUGCCGGUCCCAAGCCCGGAUAAAAGUGGGGGGGGCGG, the self-cleavage came out at 0.17.
The result for AACACUGCCAAUGCCGAUCCCAAGCCCGAAUAAAAGUGGAGGGGGCGG reads 0.308; that for AACACUGCCAAUGCCGGGCCCAAGCCCGGAUAAAAGUUGAGGGGGCGG, 0.0721; that for AACACUGCCAAUGCCGGUGCCAAGCCCGGAUAAAAGUGGAGGUGGCGG, 0.685.
Turning to AACACUGGCAAUGCCGGUCCCAAGCGCGGAUAAAAGUGGAGGGGGCGG, the self-cleavage was determined as 0.12.
The result for AACACUGCUAAUGCCGGUCCCAAGCCCGGAUCAAAGUGGAGGGGGCGG reads 0.64.
The result for AACACUGCCUACGCCGGUCCCAAGCCCGGAUAAAAGUGGAGGGGGCGG reads 0.931; that for AACACUACGAAUGCCGGUCCCAAGCCCGGAUAAAAGUGGAGGGGGCGG, 0.0915.
The result for AACGCUGCCAAUGCCGGUCCCAAGCCAGGAUAAAAGUGGAGGGGGCGG reads 0.279; that for AACACUGCCAAUGUCGGUCCCAAGCCCGGAUAAAAGCGGAGGGGGCGG, 0.602.
Turning to AAUACUGCCAAUGCCGGUCCCAAGCGCGGAUAAAAGUGGAGGGGGCGG, the self-cleavage was determined as 0.0758.
The result for AACACCGCCAAUGCCGGUCCCAAGCCCAGAUAAAAGUGGAGGGGGCGG reads 0.319; that for AACACUGCCAAUGCCUGUCCCAAGCCCGGAUAAGAGUGGAGGGGGCGG, 0.396; that for AACAUUGCCAAUGCCGGUCCCGAGCCCGGAUAAAAGUGGAGGGGGCGG, 0.113.
The result for AGCACUGCCAAUGCCGGUCCCAAGCCCGGAUAAAGGUGGAGGGGGCGG reads 0.226.
The result for AACAUUGCCAAUGCCGGUCCCAAGCCCGGAUACAAGUGGAGGGGGCGG reads 0.652.
AUCACUGCCAAUGCCGGUCCCAAGCCAGGAUAAAAGUGGAGGGGGCGG: the self-cleavage amounted to 0.124.
As to AACACUGCCAAUGCCGGUCCCAAGCCCGGAGAAAAUUGGAGGGGGCGG, the self-cleavage stood at 0.374.
